Data published in patent US20250281611A1 (BIOSCEPTRE AUST, published 2025).
Values belong to the binder of their own block, whether it stands above or below them.

How the values were obtained:
[1] = target: T1, CD37 (UniProt P11049 1-281, limits assumed); experiment: flow cytometry, JeKo-1 cells
T1 construct: whole, on cells
T1 sequence (looked up): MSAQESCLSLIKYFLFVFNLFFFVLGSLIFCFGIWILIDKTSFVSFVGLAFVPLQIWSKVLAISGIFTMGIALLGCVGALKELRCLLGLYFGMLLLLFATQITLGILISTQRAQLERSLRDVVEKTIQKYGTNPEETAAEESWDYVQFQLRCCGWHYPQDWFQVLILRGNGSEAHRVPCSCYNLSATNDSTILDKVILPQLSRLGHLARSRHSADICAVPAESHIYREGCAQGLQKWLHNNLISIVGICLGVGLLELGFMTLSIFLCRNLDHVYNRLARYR

[2] = target: T2, CD123 (UniProt P26951 19-378, limits assumed); experiment: flow cytometry, MOLM-13 cells
T2 construct: whole, on cells; also called IL3RA
T2 sequence (P26951 19-378 limits assumed): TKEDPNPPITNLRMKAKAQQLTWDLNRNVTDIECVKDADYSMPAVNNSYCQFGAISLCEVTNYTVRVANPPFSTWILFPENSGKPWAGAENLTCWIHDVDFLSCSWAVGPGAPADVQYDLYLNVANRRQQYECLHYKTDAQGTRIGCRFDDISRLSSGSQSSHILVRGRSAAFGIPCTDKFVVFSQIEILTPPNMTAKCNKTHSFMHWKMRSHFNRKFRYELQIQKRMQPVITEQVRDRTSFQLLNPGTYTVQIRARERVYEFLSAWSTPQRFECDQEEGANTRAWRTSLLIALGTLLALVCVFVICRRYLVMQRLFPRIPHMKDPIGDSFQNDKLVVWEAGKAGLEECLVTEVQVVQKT

[3] = target: T3, CD70 (UniProt P32970 1-193, limits assumed); experiment: flow cytometry, Raji cells
T3 construct: whole, on cells
T3 sequence (looked up): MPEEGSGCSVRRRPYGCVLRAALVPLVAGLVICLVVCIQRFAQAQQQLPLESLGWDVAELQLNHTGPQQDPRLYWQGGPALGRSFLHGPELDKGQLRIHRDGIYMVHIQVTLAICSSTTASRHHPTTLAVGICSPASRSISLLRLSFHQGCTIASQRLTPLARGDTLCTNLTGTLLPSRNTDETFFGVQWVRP

[4] = target: T4, CD135 (UniProt P36888 27-993, limits assumed); experiment: flow cytometry, MOLM-13 cells
T4 construct: whole, on cells; also called FLT-3

[5] = target: T5, CD79B (UniProt P40259 29-229, limits assumed); experiment: flow cytometry, JeKo-1 cells
T5 construct: whole, on cells
T5 sequence (looked up): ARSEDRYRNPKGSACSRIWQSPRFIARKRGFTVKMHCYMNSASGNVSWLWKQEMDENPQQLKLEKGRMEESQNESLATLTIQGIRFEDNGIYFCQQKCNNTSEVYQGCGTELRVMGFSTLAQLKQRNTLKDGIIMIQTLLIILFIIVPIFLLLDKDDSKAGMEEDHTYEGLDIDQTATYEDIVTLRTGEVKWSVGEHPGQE

[6] = target: T6, CD22 (UniProt P20273 20-847, limits assumed); experiment: flow cytometry, Raji cells
T6 construct: whole, on cells

[7] = target: T7, BCMA (UniProt Q02223 1-184, limits assumed); experiment: flow cytometry, RPMI 8226 cells
T7 construct: whole, on cells
T7 sequence (looked up): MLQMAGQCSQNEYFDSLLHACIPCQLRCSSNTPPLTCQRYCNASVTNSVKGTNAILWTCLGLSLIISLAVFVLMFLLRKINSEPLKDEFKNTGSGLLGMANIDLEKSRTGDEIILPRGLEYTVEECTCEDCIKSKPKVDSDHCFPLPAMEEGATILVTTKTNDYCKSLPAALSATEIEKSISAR

[8] = target: T8, ROR1 (UniProt Q01973 30-937, limits assumed); experiment: flow cytometry, JeKo-1 cells
T8 construct: whole, on cells

B1: CD37 bridging molecule (E200 + CD37 binder, Otlertuzumab, B026) (Fab, V domains shown)
VH: EVQLVQSGAEVKKPGESLKISCKGSGYSFTGYNMNWVRQMPGKGLEWMGNIDPYYGGTTYNRKFKGQVTISADKSISTAYLQWSSLKASDTAMYYCARSVGPFDSWGQGTLVTVSS
VL: EIVLTQSPATLSLSPGERATLSCRASENVYSYLAWYQQKPGQAPRLLIYFAKTLAEGIPARFSGSGSGTDFTLTISSLEPEDFAVYYCQHHSDNPWTFGQGTKVEIKR
binding result [1]: binds

B4: CD135 bridging molecule (E200 + CD135 binder, clone 4G8, B041) (Fab, V domains shown)
VH: QVQLQQPGAELVKPGASLKLSCKSSGYTFTSYWMHWVRQRPGHGLEWIGEIDPSDSYKDYNQKFKDKATLTVDRSSNTAYMHLSSLTSDDSAVYYCARAITTTPFDFWGQGTTLTVSS
VL: DIVLTQSPATLSVTPGDSVSLSCRASQSISNNLHWYQQKSHESPRLLIKYASQSISGIPSRFSGSGSGTDFTLSINSVETEDFGVYFCQQSNTWPYTFGGGTKLEIKR
binding result [4]: binds

B5: CD79B bridging molecule (E200 + CD79B binder, Polatuzumab, B025) (Fab, V domains shown)
VH: EVQLVESGGGLVQPGGSLRLSCAASGYTFSSYWIEWVRQAPGKGLEWIGEILPGGGDTNYNEIFKGRATFSADTSKNTAYLQMNSLRAEDTAVYYCTRRVPIRLDYWGQGTLVTVSS
VL: DIQLTQSPSSLSASVGDRVTITCKASQSVDYEGDSFLNWYQQKPGKAPKLLIYAASNLESGVPSRFSGSGSGTDFTLTISSLQPEDFATYYCQQSNEDPLTFGQGTKVEIKR
binding result [5]: binds

B6: CD22 bridging molecule (E200 + CD22 binder, m971-L7, B023) (Fab, V domains shown)
VH: QVQLQQSGPGMVKPSQTLSLTCAISGDSVSSNSVAWNWIRQSPSRGLEWLGRTYYRSTWYNDYAVSMKSRITINPDTNKNQFSLQLNSVTPEDTAVYYCAREVTGDLEDAFDIWGQGTMVTVSS
VL: DIQMIQSPSSLSASVGDRVTITCRASQTIWSYLNWYRQRPGEAPNLLIYAASSLQSGVPSRFSGRGSGTDFTLTISSLQAEDFATYYCQQSYSIPQTFGQGTKLEIKR
binding result [6]: binds

B7: BCMA bridging molecule (E200 + BCMA binder, clone CA8 J9M0, B039) (Fab, V domains shown)
VH: QVQLVQSGAEVKKPGSSVKVSCKGSGYTFTNYWMHWVRQAPGQGLEWIGATYRGHSDTYYNQKFKGRATLTADTSTSTAYMELSSLRSEDTAVYYCTRGAIYDGYDVLDNWGQGTLVTVSS
VL: DIQMTQSPSSLSASVGDRVTITCSASQDISNYLNWYQQKPGKAPKLLIYYTSNLHSGVPSRFSGSGSGTDFTLTISSLQPEDFATYYCQQYRKLPWTFGQGTKLEIKR
binding result [7]: binds

Further lines, results first:

binding result [2]: binds
B2: CD123 bridging molecule (E200 + CD123 binder, clone 32716, B042) (Fab, V domains shown)
VH: QIQLVQSGPELKKPGETVKISCKASGYIFTNYGMNWVKQAPGKSFKWMGWINTYTGESTYSADFKGRFAFSLETSASTAYLHINDLKNEDTATYFCARSGGYDPMDYWGQGTSVTVSS
VL: DIVLTQSPASLAVSLGQRATISCRASESVDNYGNTFMHWYQQKPGQPPKLLIYRASNLESGIPARFSGSGSRTDFTLTINPVEADDVATYYCQQSNEDPPTFGAGTKLELKR

binding result [3]: binds
B3: CD70 bridging molecule (E200 + CD70 binder, Cusatuzumab, B028) (Fab, V domains shown)
VH: EVQLVESGGGLVQPGGSLRLSCAASGFTFSVYYMNWVRQAPGKGLEWVSDINNEGGTTYYADSVKGRFTISRDNSKNSLYLQMNSLRAEDTAVYYCARDAGYSNHVPIFDSWGQGTLVTVSS
VL: SQAVVTQEPSLTVSPGGTVTLTCGLKSGSVTSDNFPTWYQQTPGQAPRLLIYNTNTRHSGVPDRFSGSILGNKAALTITGAQADDEAEYFCALFISNPSVEFGGGTQLTVLK

binding result [8]: binds
B8: ROR1 bridging molecule (E200 + ROR-1 binder, clone D10v3, B044) (Fab, V domains shown)
VH: QVQLKESGPGLVAPSQTLSITCTVSGFSLTSYGVHWVRQPPGKGLEWLGVIWAGGFTNYNSALKSRLSISKDNSKSQVLLKMTSLQTDDTAMYYCARRGSSYSMDYWGQGTSVTVSS
VL: EIVLSQSPAITAASLGQKVTITCSASSNVSYIHWYQQRSGTSPRPWIYEISKLASGVPVRFSGSGSGTSYSLTISSMEAEDAAIYYCQQWNYPLITFGSGTKLEIQR
